Data as given in PMC6702328, “A VDAC1-Derived N-Terminal Peptide Inhibits Mutant SOD1-VDAC1 Interactions and Toxicity in the SOD1 Model of ALS” (Frontiers in Cellular Neuroscience, 2019).

Experiments:
[1] = target: recombinant full-length murine VDAC1 (murine) (UniProt Q60932)
[2] = target: recombinant full-length murine VDAC1 (murine) (UniProt Q60932); remark: listed apart in the source

Chain of recombinant full-length murine VDAC1 (murine) (Q60932 14-296): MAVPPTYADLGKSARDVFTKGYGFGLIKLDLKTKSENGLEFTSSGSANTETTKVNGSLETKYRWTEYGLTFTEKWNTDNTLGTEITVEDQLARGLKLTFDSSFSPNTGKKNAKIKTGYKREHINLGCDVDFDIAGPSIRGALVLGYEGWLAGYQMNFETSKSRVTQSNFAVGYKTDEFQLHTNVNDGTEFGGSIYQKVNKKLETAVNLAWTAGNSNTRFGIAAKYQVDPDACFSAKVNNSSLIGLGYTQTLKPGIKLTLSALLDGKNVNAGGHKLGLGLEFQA

| Substance | survival of mESC-derived SOD1^G93A-expressing motor neurons with the (1-20)-N-Ter-Antp peptide, 10 μM, 96 h [1] [fold] | inhibition of channel conductance of bilayer-reconstituted VDAC1 [2] [%] |
| --- | --- | --- |
| human mutant SOD1^G93A (enzyme) | 2 | 57 |
| human mutant SOD1^G85R (enzyme) | – | 40 |
